Test results: the RNAGym collection of RNA variant scans (doi:10.7554/elife.90254)

B1: LINE1-full (parent)
chain: UACGUAGGUGGUUUUCCCCUGAUAGUGCUAAGGGGGCCUGGAAGUUUGGACUGGGCAGAGCUCAACACAGCGUGGCAAAGUGGCUGUGGCUAGACUGCCUCUCUGGAUUCCUCGUCACUCAGCAGGGCAUCUCUGAGAGAAAUGCC

Variants of: B1
Assay: self-cleavage, relative activity (ratio to wild type); higher = more cleavage; in vitro, sequencing; the parent is a self-cleaving ribozyme

Row | Variant | self-cleavage
1 | U13C U73C | 1.17
2 | A42G A65G | 0.14
3 | U109G G127A | 1.53
4 | U26C U85C | 0.27
5 | U52A G82U | 1.26
6 | A6U A59G | 0.11
7 | C98G U112C | 0.12
8 | U9G A43G | 0.85
9 | G60A C113U | 0
10 | G126A C133A | 1.7
11 | U104G U115A | 0.87
12 | U39C U87A | 0.06
13 | C19U U112A | 1.06
14 | C113U A117C | 1.68
15 | G75U U115A | 1.06
16 | U5C A94U | 0.76
17 | G25A G105A | 1.27
18 | C18U A67G | 0.44
19 | A142G U143A | 1.28
20 | A59G U96G | 0
21 | U52C G83A | 0.53
22 | A57U A65G | 0.07
23 | G34A U96A | 0.05
24 | G41U U134C | 1.21

Row | Variant | self-cleavage
25 | A79G U81G | 0.43
26 | U5C A43U | 1.48
27 | U5C A43G | 1.03
28 | G89A U100A | 0.04
29 | G89A A142G | 0.03
30 | U14C U23C | 1.4
31 | G125A | 1.19
32 | A59U U91C | 0.34
33 | U26C A129G | 1.41
34 | A59G U132C | 0.11
35 | A94U C120G | 0.3
36 | U13C | 1.15
37 | A6U U47C | 0.8
38 | C61A U62C | 0.08
39 | U45C A69G | 0.31
40 | A138U A140U | 0.84
41 | G34A A50G | 0.87
42 | A42G U109A | 1.43
43 | U119C A142U | 1.95
44 | U115C | 1.58
45 | A59U G60A | 0.05
46 | C56U C111U | 0.19
47 | A2U U87A | 0.08
48 | G93U A142U | 0.04

Row | Variant | self-cleavage
49 | C3A U12G | 0.81
50 | U13A G126U | 1.86
51 | U119C A140G | 1.88
52 | A67U C131A | 0.13
53 | G86A U112C | 0.08
54 | G4A U45C | 0.57
55 | U115G G125U | 0.54
56 | G36A U52A | 1.21
57 | G21A U132C | 1.63
58 | U45C A65U | 0.22
59 | G11U A136U | 1.26
60 | C113A U134C | 0.33
61 | U96C U132C | 0.11
62 | U12A U134C | 0.73
63 | A94C A129G | 0
64 | A117U U119C | 1.73
65 | A59G A78U | 0.1
66 | A77G U143C | 2.2
67 | U12C U119G | 1.5
68 | U47C A59G | 0.12
69 | A64C A69G | 0.35
70 | C17A G70U | 0.13
71 | U26A C66A | 0.05
72 | A65C U87C | 0.04

Row | Variant | self-cleavage
73 | U73A U130A | 1.83
74 | A6G A64U | 0.87
75 | G97U U104A | 0.02
76 | U26C C37U | 0.77
77 | A69G U81G | 0
78 | A6U U81C | 1.06
79 | U13A U47A | 1.01
80 | U45G U62C | 0.02
81 | A2G A57G | 0.68
82 | G33A A67G | 0.63
83 | U13C A121U | 1.26
84 | C113A U115A | 1.55
85 | A42G A57G | 0.95
86 | G88A A140G | 0.08
87 | U132C A138G | 1.6
88 | U5C G74A | 1.19
89 | A24C A121G | 2.59
90 | C28A U115C | 1.07
91 | A22G G126A | 1.74
92 | A94U A138G | 0.32
93 | C131U A141G | 1.51
94 | U87C C111U | 0.23
95 | U52G G80C | 0.97
96 | U73G U96C | 0

Row | Variant | self-cleavage
97 | U12A A140U | 1.09
98 | A142U U143A | 1.13
99 | U9C C38U | 1.29
100 | G32A U130C | 1.26
101 | C19U C76U | 1.64
102 | A24G A31G | 0.72
103 | U1A U115C | 1.3
104 | A6U A121G | 0.87
105 | A124U U132C | 1.43
106 | C17U A94U | 0.17
107 | A24C U47C | 2.18
108 | A2U A121G | 1.53
109 | U12G G80A | 1.64
110 | A67C C123A | 0.07
111 | A42U A107G | 1.25
112 | G122A U143C | 1.11
113 | U29A | 1.23
114 | U29C | 1.28
115 | U52G A94U | 0.42
116 | A94U U119C | 0.28
117 | U112A A117G | 1.82
118 | A59G U143C | 0.1
119 | A121G A140G | 1.84
120 | C28G U143A | 1.45

Row | Variant | self-cleavage
121 | C56U G86A | 0.04
122 | A6G A24U | 1.21
123 | U1A G54A | 1.05
124 | G10U | 1.26
125 | A69U C131U | 0.03
126 | C16U U143A | 0.86
127 | C37G A141G | 1.66
128 | A107U A117G | 1.34
129 | U81C G122U | 1.14
130 | U14C C146U | 1.32
131 | U26A A57U | 0.04
132 | A24C A57G | 1.17
133 | G60A U143C | 0
134 | G72A A129G | 1.67
135 | U46C C68U | 0.44
136 | U14C A117G | 1.22
137 | A79G U132C | 1.43
138 | U91C U100A | 0.15
139 | G49A A77U | 0.86
140 | G21U U73C | 2.04
141 | G35A G83C | 0.71
142 | G32A U100C | 1.34
143 | U39C C113G | 1.71
144 | U23A U112C | 1.18

Row | Variant | self-cleavage
145 | A94G A129G | 0.11
146 | C84G C146A | 0.1
147 | U108A U115C | 1.52
148 | A67U C146A | 0.14
149 | A67G G114C | 0.49
150 | A79G C133A | 1.12
151 | C123G U132C | 1.43
152 | A124C U130C | 1.84
153 | C95U A129G | 0.19
154 | U45C U46G | 1.37
155 | U73C C103U | 1.61
156 | U62C U102C | 0.06
157 | A6U U87G | 0.12
158 | U9A G127U | 1.92
159 | U26A C133U | 1.01
160 | G7U U132C | 1.23
161 | C68A C146U | 0.06
162 | U14C C110U | 1.39
163 | U62C U130A | 0.07
164 | C76G A78G | 1.7
165 | U13A A59U | 0.44
166 | A77U C113A | 0.92
167 | A124G A142U | 0.94
